Assay results taken from publication PMC4256047, “Structural and Functional Profiling of Environmental Ligands for Estrogen Receptors” (Environmental Health Perspectives, 2014).
Where no end group is shown, it is not given here. fluorescein = fluorescein label on the N-terminus of the peptide

How the values were obtained:
Details in all cases: both partners purified
[1] = target: T1, human wt-ERβ LBD (estrogen receptor beta ligand-binding domain, amino acids 261-502) (human, UniProt Q92731 261-502); test: fluorescence polarisation; fluorescence anisotropy; 4 nM fluorescein-SRC-1 NR2 peptide, LBD diluted 2-fold from 10 uM (ERα) or 20 uM (ERβ); with BBP at 20 uM (ERα) or 40 uM (ERβ); 20 mM Tris pH 8.0, 150 mM NaCl, 5 mM DTT, 10% glycerol
T1 construct: Cloned into pET-32a; N-terminal thioredoxine-hexahistidine tag removed with TEV protease; not shown: thioredoxin, N-terminal, cleaved; His6, N-terminal, cleaved
T1 sequence (Q92731 261-502): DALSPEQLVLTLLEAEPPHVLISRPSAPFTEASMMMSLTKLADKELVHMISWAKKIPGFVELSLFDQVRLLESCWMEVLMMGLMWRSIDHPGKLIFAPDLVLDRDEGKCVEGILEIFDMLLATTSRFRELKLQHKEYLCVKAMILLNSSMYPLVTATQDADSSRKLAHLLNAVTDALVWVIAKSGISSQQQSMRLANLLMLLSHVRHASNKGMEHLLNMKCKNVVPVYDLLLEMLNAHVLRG

[2] = target: T2, human wt-ERα LBD (estrogen receptor alpha ligand-binding domain, amino acids 302-552) (human, UniProt P03372 302-552); test: fluorescence polarisation; fluorescence anisotropy; 4 nM fluorescein-SRC-1 NR2 peptide, LBD diluted 2-fold from 10 uM (ERα) or 20 uM (ERβ); with BPA at 20 uM (ERα) or 40 uM (ERβ); 20 mM Tris pH 8.0, 150 mM NaCl, 5 mM DTT, 10% glycerol
T2 sequence (looked up): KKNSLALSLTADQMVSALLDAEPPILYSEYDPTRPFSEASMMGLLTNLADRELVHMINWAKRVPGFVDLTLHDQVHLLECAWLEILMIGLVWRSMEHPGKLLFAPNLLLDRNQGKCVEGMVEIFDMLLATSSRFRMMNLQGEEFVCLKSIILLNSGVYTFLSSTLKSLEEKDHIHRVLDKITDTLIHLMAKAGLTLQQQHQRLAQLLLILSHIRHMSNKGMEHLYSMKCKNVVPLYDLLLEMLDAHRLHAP

[3] = target: T1, human wt-ERβ LBD (estrogen receptor …); test: as above
[4] = target: T2, human wt-ERα LBD (estrogen receptor …); test: fluorescence polarisation; fluorescence anisotropy; 4 nM fluorescein-SRC-1 NR2 peptide, LBD diluted 2-fold from 10 uM (ERα) or 20 uM (ERβ); with DDE at 20 uM (ERα) or 40 uM (ERβ); 20 mM Tris pH 8.0, 150 mM NaCl, 5 mM DTT, 10% glycerol
[5] = target: T1, human wt-ERβ LBD (estrogen receptor …); test: fluorescence polarisation; fluorescence anisotropy; 4 nM fluorescein-SRC-1 NR2 peptide, LBD diluted 2-fold from 10 uM (ERα) or 20 uM (ERβ); with 4-OP at 20 uM (ERα) or 40 uM (ERβ); 20 mM Tris pH 8.0, 150 mM NaCl, 5 mM DTT, 10% glycerol
[6] = target: T2, human wt-ERα LBD (estrogen receptor …); test: fluorescence polarisation; fluorescence anisotropy; 4 nM fluorescein-SRC-1 NR2 peptide, LBD diluted 2-fold from 10 uM (ERα) or 20 uM (ERβ); with α-ZA at 20 uM (ERα) or 40 uM (ERβ); 20 mM Tris pH 8.0, 150 mM NaCl, 5 mM DTT, 10% glycerol
[7] = target: T1, human wt-ERβ LBD (estrogen receptor …); test: fluorescence polarisation; fluorescence anisotropy; 4 nM fluorescein-SRC-1 NR2 peptide, LBD diluted 2-fold from 10 uM (ERα) or 20 uM (ERβ); with TCBPA at 20 uM (ERα) or 40 uM (ERβ); 20 mM Tris pH 8.0, 150 mM NaCl, 5 mM DTT, 10% glycerol
[8] = target: T1, human wt-ERβ LBD (estrogen receptor …); test: fluorescence polarisation; fluorescence anisotropy; 4 nM fluorescein-SRC-1 NR2 peptide, LBD diluted 2-fold from 10 uM (ERα) or 20 uM (ERβ); with chlordecone at 20 uM (ERα) or 40 uM (ERβ); 20 mM Tris pH 8.0, 150 mM NaCl, 5 mM DTT, 10% glycerol
[9] = target: T1, human wt-ERβ LBD (estrogen receptor …); test: fluorescence polarisation; fluorescence anisotropy; 4 nM fluorescein-SRC-1 NR2 peptide, LBD diluted 2-fold from 10 uM (ERα) or 20 uM (ERβ); with butylparaben at 20 uM (ERα) or 40 uM (ERβ); 20 mM Tris pH 8.0, 150 mM NaCl, 5 mM DTT, 10% glycerol
[10] = target: T2, human wt-ERα LBD (estrogen receptor …); test: fluorescence polarisation; fluorescence anisotropy; 4 nM fluorescein-SRC-1 NR2 peptide, LBD diluted 2-fold from 10 uM (ERα) or 20 uM (ERβ); with OHT (4-hydroxytamoxifen) at 20 uM (ERα) or 40 uM (ERβ); 20 mM Tris pH 8.0, 150 mM NaCl, 5 mM DTT, 10% glycerol
[11] = target: T1, human wt-ERβ LBD (estrogen receptor …); test: as above

B1: fluorescein-RHKILHRLLQEGS peptide corresponding to the NR box 2-binding motif of SRC-1 (peptide)
peptide: fluorescein-RHKILHRLLQEGS
notes: also called SRC-1 NR2 peptide; fluorescein-labeled SRC-1 NR2 peptide; source: bought: EZbiolab
Kd [1]: 10.6 µM | Kd [2]: 1.76 µM | Kd [3]: 1.31 µM | Kd [4]: 4.1 µM | Kd [5]: 1.55 µM | Kd [6]: 0.33 µM | Kd [7]: 4.33 µM | Kd [8]: 9.13 µM | Kd [9]: 1.13 µM | Kd [10]: 23.6 µM | Kd [11]: 38.8 µM
